Source: paper PMC8387964 (2021)

How the values were obtained:
[1] = target: Rac1 (Homo sapiens, UniProt P63000)
[2] = target: Rac1 (Homo sapiens, UniProt P63000, Rac1 acetylated at K166)

Kd [1]: 2340 nM
Kd [2]: 109 nM
B1: p67phox (protein)
chain: MSLVEAISLWNEGVLAADKKDWKGALDAFSAVQDPHSRICFNIGCMYTILKNMTEAEKAFTRSINRDKHLAVAYFQRGMLYYQTEKYDLAIKDLKEALIQLRGNQLIDYKILGLQFKLFACEVLYNIAFMYAKKEEWKKAEEQLALATSMKSEPRHSKIDKAMECVWKQKLYEPVVIPVGKLFRPNERQVAQLAKKDYLGKATVVASVVDQDSFSGFAPLQPQAAEPPPRPKTPEIFRALEGEAHRVLFGFVPETKEELQVMPGNIVFVLKKGNDNWATVMFNGQKGLVPCNYLEPVELRIHPQQQPQEESSPQSDIPAPPSSKAPGRPQLSPGQKQKEEPKEVKLSVPMPYTLKVHYKYTVVMKTQPGLPYSQVRDMVSKKLELRLEHTKLSYRPRDSNELVPLSEDSMKDAWGQVKNYCLTLWCENTVGDQGFPDEPKESEKADANNQTTEPQLKKGSQVEALFSYEATQPEDLEFQEGDIILVLSKVNEEWLEGECKGKVGIFPKVFVEDCATTDLESTRREV
